Data on two molecules can be found in patent publication US20240400703A1 (Genmab, published 2024).

For experiment [1], the target named is T1, human OX40 expressed on cells (human, UniProt P43489 29-277).
T1 construct: also called CD134; TNFRSF4
T1 sequence: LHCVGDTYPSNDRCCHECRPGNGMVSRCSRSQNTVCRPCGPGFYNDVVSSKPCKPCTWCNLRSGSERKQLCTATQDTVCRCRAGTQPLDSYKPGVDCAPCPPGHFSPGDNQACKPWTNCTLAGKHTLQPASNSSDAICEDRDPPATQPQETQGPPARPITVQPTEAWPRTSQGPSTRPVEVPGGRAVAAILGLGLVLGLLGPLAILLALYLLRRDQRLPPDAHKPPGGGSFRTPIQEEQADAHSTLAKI
Description: flow cytometry, loss of sOX40L (2 µg/mL) binding to activated human CD8+ T cells; competitor sOX40L. The method, then: Stimulated PBMCs were pelleted, resuspended in FACS buffer 2 (DPBS with 2% heat-inactivated FBS [Sigma-Aldrich, cat. no. F7524] and 2 mM EDTA [Sigma-Aldrich, cat. no. 03690]), and seeded (100,000 cells/well) in round-bottom 96-well plates (VWR International GmbH, cat. no. 734-197). […] Next, cells were washed twice in FACS buffer, and incubated with 30 μL of the antibody panel described in Table 11 diluted in FACS buffer 2 containing 1:1,500 Fixable Viability Stain eFluor 780 at 4° C. for 20 min, protected from light. The cells were subsequently washed twice with 120-150 μL FACS buffer 2 and measured on a BD FACSCelesta flow cytometer using a BD High Throughput sampler and subsequent analysis was done using FlowJo software.
(In flow cytometry, cells or beads pass a laser one at a time.)

Experiment [2] concerns the target T1, human OX40 expressed on cells. Description: flow cytometry, human T cells activated 72 h with anti-CD3/CD28 beads.
Experiment [3] shares this target. The experiment can be described thus: flow cytometry, activated human CD4+ T cells, without sOX40L, n=3.
Experiment [4] addresses His-tagged human recombinant FcγRIa (Sino Biological, cat. no. 10256-H08S-B) (human, UniProt P12314 16-288). Description: SPR, His-tagged FcγR captured on anti-His chip, antibody injected. The method, then: (§1) Biacore Series S Sensor Chips CM5 (Cytiva, cat. no. 29104988) were covalently coated with anti-His antibody using amine-coupling and His capture kits (Cytiva, cat. no. BR100050 and cat. no. 29234602) according to the manufacturer's instructions. […] After three start-up cycles of HBS-EP+ buffer, antibody samples were injected for 12 cycles per sample to generate binding curves using antibody concentration ranges of 0 to 3,000 nM for FcγRIa and 0 to 10,000 nM for the other FcγRs.
(§2) Dissociation from the anti-His-coated surface was performed by regeneration of the surface using 10 mM Glycine-HCl pH 1.5 (Cytiva, cat. no. BR100354).
On the technique in general: SPR reads the build-up and loss of mass on a sensor chip optically.

The target in experiment [5] is T2, His-tagged human recombinant FcγRIIIa 176-Phe (Sino Biological, cat. no. 10389-H27H) (human, UniProt P08637 17-208).
T2 construct: also called FcγRIIIa[F]
T2 sequence (P08637 17-208 limits assumed): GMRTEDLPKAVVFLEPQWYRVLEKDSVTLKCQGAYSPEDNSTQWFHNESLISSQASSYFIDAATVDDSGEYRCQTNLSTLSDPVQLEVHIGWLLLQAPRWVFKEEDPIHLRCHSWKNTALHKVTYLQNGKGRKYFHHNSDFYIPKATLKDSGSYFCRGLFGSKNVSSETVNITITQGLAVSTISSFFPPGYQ
The description is as above. The procedure: as §1, §2

The target of experiment [6] is T3, His-tagged human recombinant FcγRIIa 167-His (Sino Biological, cat. no. 10374-H08H1) (human, UniProt P12318 34-218).
T3 construct: also called FcγRIIa[H]
T3 sequence (looked up): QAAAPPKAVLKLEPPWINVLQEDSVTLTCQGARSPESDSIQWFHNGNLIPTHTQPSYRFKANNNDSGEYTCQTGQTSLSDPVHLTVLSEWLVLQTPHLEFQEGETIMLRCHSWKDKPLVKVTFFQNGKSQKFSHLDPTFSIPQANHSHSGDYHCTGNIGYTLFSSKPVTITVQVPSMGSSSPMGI
The description is as above. The method, then: as §1, §2

In experiment [7] the target is T4, His-tagged human recombinant FcγRIIIa 176-Val (Sino Biological, cat. no. 10389-H27H1-B) (human, UniProt P08637 17-208).
T4 construct: also called FcγRIIIa[V]
T4 sequence (P08637 17-208 F176V limits assumed): as the sequence (P08637 17-208 limits assumed) above, with F160V counted along it
The description is as above. The method, then: as §1, §2

Experiment [8] has as its target T5, recombinant cynomolgus monkey OX40 (Acro Biosystems, cat. no. OX0-C5220) (cynomolgus monkey (Macaca fascicularis), UniProt P43489 29-214 (human entry)).
T5 construct: bought protein; also called Cyno OX40
T5 chain: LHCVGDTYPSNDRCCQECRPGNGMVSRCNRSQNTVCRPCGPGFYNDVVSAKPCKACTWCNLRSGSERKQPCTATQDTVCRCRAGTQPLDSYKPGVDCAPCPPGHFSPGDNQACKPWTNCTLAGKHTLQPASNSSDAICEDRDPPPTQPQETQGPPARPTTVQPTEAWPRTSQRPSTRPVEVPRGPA
The experiment can be described thus: BLI, Ab on AHC sensor, OX40 analyte; * binding observed, less reliable fit. The method, then:
Experiments were carried out while shaking at 1,000 RPM at 30° C. […] Next, AHC sensors were loaded with antibody (1 μg/mL in Sample Diluent) for 600 s. After a baseline measurement in sample diluent (100 s), the association (200 s) and dissociation (1,000 s) of human OX40 (Acro Biosystems, cat. no. OX0-H5224), and cynomolgus monkey OX40 (Acro Biosystems, cat. no. OX0-C5220) was determined using a concentration range of 0.78 to 800 nM with 2-fold dilution steps.
The theoretical molecular masses of the antigens based on the amino acid sequences were used for calculations. For each antibody, a reference sensor was used which was incubated with Sample Diluent instead of antigen. AHC sensors were regenerated by exposure to 10 mM glycine buffer pH 1.7 for 5 s, followed by neutralization in Sample Diluent for 5 s; both steps were repeated twice. Subsequently sensors were loaded again with antibody for the next cycle of kinetic measurements.
Data were acquired using Data Acquisition Software v12.0 (Sartorius) and analyzed with Data Analysis Software v12.0 (Sartorius). Data traces were corrected per antibody by subtraction of the reference sensor. The Y-axis was aligned to the last 10 s of the baseline and Interstep Correction alignment to dissociation as well as Savitzky-Golay filtering were applied. Data traces with a response <0.05 nm were excluded from analysis. […] The data was fitted with the 1:1 model using a window of interest for the association of 200 s and dissociation times set at 50 s, 200 s and 1,000 s. The dissociation time was chosen based upon R² value, visual inspection of the curve and at least 5% signal decay during the dissociation step.

“And” between values parts separate entries of the source, which are not always exact repeats. Equal values may be shown once.

Chain of His-tagged human recombinant FcγRIa (Sino Biological, cat. no. 10256-H08S-B) (P12314 16-288 limits assumed, stated change not applied): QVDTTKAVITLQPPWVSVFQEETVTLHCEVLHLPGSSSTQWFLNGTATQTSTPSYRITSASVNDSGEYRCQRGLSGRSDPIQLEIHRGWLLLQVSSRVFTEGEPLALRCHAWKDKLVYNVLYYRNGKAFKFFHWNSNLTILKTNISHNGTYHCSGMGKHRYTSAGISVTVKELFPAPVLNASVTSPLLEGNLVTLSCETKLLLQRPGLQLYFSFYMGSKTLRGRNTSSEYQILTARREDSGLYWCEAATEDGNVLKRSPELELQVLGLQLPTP

B1: IgG1-CD134-003-HC6LC2-P329R-E345R (antibody)
heavy: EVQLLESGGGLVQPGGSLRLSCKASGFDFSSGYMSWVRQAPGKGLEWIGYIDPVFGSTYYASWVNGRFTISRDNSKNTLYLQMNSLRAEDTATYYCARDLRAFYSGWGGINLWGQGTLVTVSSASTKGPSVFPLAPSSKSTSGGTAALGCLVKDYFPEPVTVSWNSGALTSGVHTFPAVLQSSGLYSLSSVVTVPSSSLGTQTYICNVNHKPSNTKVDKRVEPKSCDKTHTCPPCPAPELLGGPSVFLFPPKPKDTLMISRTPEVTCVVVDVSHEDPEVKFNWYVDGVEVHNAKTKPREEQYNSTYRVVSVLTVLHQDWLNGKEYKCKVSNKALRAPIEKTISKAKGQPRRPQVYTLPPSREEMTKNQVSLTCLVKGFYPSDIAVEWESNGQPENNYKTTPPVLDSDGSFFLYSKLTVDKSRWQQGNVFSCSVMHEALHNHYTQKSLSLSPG
light: AAVLTQSPSSLSASVGDRVTITCQSSQIVVNNNFLSWYQQKPGKAPKLLIYDASNLASGVPDRFSGSGSGTDFTFTISSLQPEDIATYYCLGGYDDDAENAFGGGTKVEIKRTVAAPSVFIFPPSDEQLKSGTASVVCLLNNFYPREAKVQWKVDNALQSGNSQESVTEQDSKDSTYSLSSTLTLSKADYEKHKVYACEVTHQGLSSPVTKSFNRGEC
notes: humanized; human IgG1 with P329R and E345R (Eu numbering), kappa; also called IgG1-CD134-003-HC6LC2-RR
Regarding B1, the IC50 (in general, the concentration that inhibits the measured activity by half) in experiment [1] stood at 0.084 µg/mL. Further, the EC50 (read off the curve) (commonly the concentration needed to bring the measured effect to its halfway point) in experiment [2] was around 0.02 µg/mL. The EC50 (in general, the concentration needed to bring the measured effect to its halfway point) in experiment [3] is 0.019 µg/mL and 0.13 nM. For the same molecule, the binding result in experiment [4] is reported as “binds”; in experiment [5], “no binding (tested: about 4,000 nM)”; in experiment [6] it was “no binding (tested: 10,000 nM)”; in experiment [7], “no binding (tested: 10,000 nM)”.

B2: IgG1-CD134-012 (antibody)
heavy: not shown
light: DIVMTQTPASVEAAVGGTVTIKCQASENIYSSLAWYQQKPGQPPKLLIYRTSTLASGVPSRFKGSGSGTQFTLTISDLESDDAATYYCQSYYHNSGGGYDYGFGGGTEVVAKRTVAAPSVFIFPPSDEQLKSGTASVVCLLNNFYPREAKVQWKVDNALQSGNSQESVTEQDSKDSTYSLSSTLTLSKADYEKHKVYACEVTHQGLSSPVTKSFNRGEC
notes: rabbit-human chimeric IgG1
For B2, in experiment [8], the Kd (usually the equilibrium constant for the complex coming apart) amounted to 180 nM; the off-rate constant (koff) – broadly, a measure of how fast the partners let go of each other – came to 0.018 s⁻¹; the kon – broadly, the second-order rate constant of association – is 98000 M⁻¹ s⁻¹.
